Measurements taken from paper PMC11524583, “Neurons enhance blood–brain barrier function via upregulating claudin-5 and VE-cadherin expression due to glial cell line-derived neurotrophic factor secretion” (eLife, 2024).
Values joined by “and” are separate entries in the source; they are usually repeats but may differ in a detail not shown here. Identical values can stand only once.

What was measured:
Assay type in all cases: cell-based, Homo sapiens
claudin-5 = experiment: Western blot of claudin-5 expression in hCMEC/D3 cells
Procedure, shortened: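 hCMEC/D3 cells were cultured in U251/SH-SY5Y co-culture conditioned medium or 200 pg/ml GDNF, with or without 0.25–1.0 μg/ml anti-GDNF antibody, for 6 days; alternatively, after 10 nM siRNA or FOXO1 plasmid transfection, cells received GDNF medium for 72 hr. RIPA lysates were analysed by SDS-PAGE immunoblot with ECL detection.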

VE-cadherin = experiment: Western blot of VE-cadherin expression in hCMEC/D3 cells
Procedure, shortened: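 hCMEC/D3 cells were cultured 6 days in 200 pg/ml GDNF or U251/SH-SY5Y co-culture conditioned medium, ±0.25–1.0 μg/ml anti-GDNF antibody, with medium changed every 24 hr. Alternatively, cells got 10 nM FOXO1, ETS1 or CDH5 siRNA for 12 hr, then GDNF medium for 72 hr. RIPA lysates were immunoblotted with ECL detection.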

p-ERK/ERK = experiment: Western blot of p-ERK/ERK in hCMEC/D3 cells; details: hCMEC/D3 cells; 200 pg/ml GDNF or US-CM
Procedure: Whole-cell and tissue lysates, nucleoprotein, and cytoplasmic protein were prepared using RIPA Lysis Buffer (Beyotime, Shanghai, China) as the described method ([Wu et al., 2021]). Proteins were separated through sodium dodecyl sulfate–polyacrylamide gel electrophoresis and transferred onto nitrocellulose or polyvinylidene difluoride membranes. The membranes were blocked with 5% skim milk and incubated with corresponding primary antibodies at 4°C overnight. After being washed with Tris-buffered saline Tween buffer, the membranes were incubated with secondary antibodies (Cell Signaling Technology, MA, USA) at 1:3000 dilution: Anti-mouse IgG, HRP-linked Antibody (#7076), Anti-rabbit IgG, HRP-linked Antibody (#7074). Protein levels were visualized using a highly sensitive ECL western blotting substrate and a gel imaging system (Tanon Science & Technology, Shanghai, China).
Exogenous and endogenous GDNF in the medium was neutralized with anti-GDNF antibody (#AF-212-NA, R&D system, Minneapolis, MN, USA). 0.25, 0.5, and 1.0 μg/ml anti-GDNF antibody was added into the US-CM or medium containing 200 pg/ml GDNF, and then the medium was preincubated at 4°C for 1 hr. The hCMEC/D3 cells were incubated with 200 pg/ml GDNF or US-CM containing anti-GDNF antibody or not for 6 days, and then cell lysate was collected for western blot. The medium was replaced every 24 hr.

[1] = 50pg, Figure 2D, relative to Con, single replicates
[2] = 100pg, Figure 2D, relative to Con, single replicates
[3] = 200pg, Figure 2D, relative to Con, single replicates
[4] = Figure 2K, hCMEC/D3 cells, group mean, relative to Con
[5] = Figure 2K, hCMEC/D3 cells, individual replicates, relative to Con
[6] = Figure 5G, hCMEC/D3 cells, group mean, NC = 1.000
[7] = Figure 5G, hCMEC/D3 cells, single replicates, relative to NC group
[8] = hCMEC/D3 cells incubated with conditioned medium or neurotrophic factor vs normal medium
[9] = relative to Con (mean 1.000), mean of 4, Figure 3A
[10] = relative to Con (mean 1.000), mean of 4, Figure 3B
[11] = relative to Con (mean 1.000), mean of 4, Figure 3C
[12] = relative to Con (mean 1.000), mean of 4, Figure 3D
[13] = relative to Con (mean 1.000), single replicates, Figure 3A
[14] = relative to Con (mean 1.000), single replicates, Figure 3B
[15] = relative to Con (mean 1.000), single replicates, Figure 3C
[16] = relative to Con (mean 1.000), single replicates, Figure 3D

B1: GDNF: glial cell line-derived neurotrophic factor, recombinant protein (R&D system) (protein, UniProt P39905 78-211, looked up)
Glial cell line-derived …: SPDKQMAVLPRRERNRQAAAANPENSRGKGRRGQRGKNRGCVLTAIHLNVTDLGLGYETKEELIFRYCSGSCDAAETTYDKILKNLSRNRRLVSDKVGQACCRPIAFDDDLSFLDDNLVYHILRKHSAKRCGCI
With B1 the “Claudin-5/β-actin Relative Expression, Mean” value (claudin-5; 50pg, Figure 2D, Con = 1.000) was 1.434, the “Claudin-5/β-actin Relative Expression” value (claudin-5; [1]) was 1.162 and 1.622 and 1.551 and 1.402 and the “Claudin-5/β-actin Relative Expression, Mean” value (claudin-5; 100pg, Figure 2D, Con = 1.000) was 1.645. The “Claudin-5/β-actin Relative Expression” value (claudin-5; [2]) was 1.855 and 1.384 and 1.893 and 1.449, the “Claudin-5/β-actin Relative Expression, Mean” value (claudin-5; 200pg, Figure 2D, Con = 1.000) was 2.035 and the “Claudin-5/β-actin Relative Expression” value (claudin-5; [3]) was 2.027 and 2.014 and 1.765 and 2.333. The “Claudin-5/β-actin Mean” value (claudin-5; Figure 2I, hCMEC/D3 cells, group mean, relative to Con) was 1.520, the “Claudin-5/β-actin Relative Expression” value (claudin-5; Figure 2I, hCMEC/D3 cells, individual replicates, relative to Con) was 1.748 and 1.509 and 1.594 and 1.229 and the “Claudin-5/β-actin Mean” value (claudin-5; [4]) was 1.490. For the same molecule, the “Claudin-5/β-actin Relative Expression” value (claudin-5; [5]) was 1.399 and 1.426 and 1.661 and 1.475, the “Claudin-5/β-actin Relative Expression, Mean” value (claudin-5; [6]) was 1.393 and the “Claudin-5/β-actin Relative Expression” value (claudin-5; [7]) was 1.279 and 1.343 and 1.470 and 1.479. The claudin-5 expression (claudin-5; [8]) was “induced the expression of claudin-5 and VE-cadherin in a concentration-dependent manner”, the “Claudin-5/β-actin Relative Expression, Mean” value (claudin-5; [9]) was 1.789 and the “Claudin-5/β-actin Relative Expression, Mean” value (claudin-5; [10]) was 1.788. For the same molecule, the “Claudin-5/β-actin Relative Expression, Mean” value (claudin-5; [11]) was 2.325, the “Claudin-5/β-actin Relative Expression, Mean” value (claudin-5; [12]) was 1.421 and the “Claudin-5/β-actin Relative Expression” value (claudin-5; [13]) was 1.761 and 1.657 and 1.692 and 2.046. For the same molecule, the “Claudin-5/β-actin Relative Expression” value (claudin-5; [14]) was 1.594 and 2.146 and 1.495 and 1.917, the “Claudin-5/β-actin Relative Expression” value (claudin-5; [15]) was 2.223 and 2.345 and 2.874 and 1.857 and the “Claudin-5/β-actin Relative Expression” value (claudin-5; [16]) was 1.649 and 1.456 and 1.174 and 1.405. For the same molecule, the “VE-cadherin/β-actin Relative Expression, Mean” value (VE-cadherin; 50pg, Figure 2D, Con = 1.000) was 1.451, the “VE-cadherin/β-actin Relative Expression” value (VE-cadherin; [1]) was 1.462 and 1.352 and 1.497 and 1.494 and the “VE-cadherin/β-actin Relative Expression, Mean” value (VE-cadherin; 100pg, Figure 2D, Con = 1.000) was 1.603. For the same molecule, the “VE-cadherin/β-actin Relative Expression” value (VE-cadherin; [2]) was 1.56 and 1.556 and 1.562 and 1.733, the “VE-cadherin/β-actin Relative Expression, Mean” value (VE-cadherin; 200pg, Figure 2D, Con = 1.000) was 1.795 and the “VE-cadherin/β-actin Relative Expression” value (VE-cadherin; [3]) was 1.847 and 2.268 and 1.408 and 1.657. For the same molecule, the “VE-cadherin/β-actin Mean” value (VE-cadherin; [4]) was 1.787, the “VE-cadherin/β-actin Relative Expression” value (VE-cadherin; [5]) was 2.089 and 1.381 and 1.914 and 1.765 and the “VE-cadherin/β-actin Relative Expression, Mean” value (VE-cadherin; [6]) was 1.370. For the same molecule, the “VE-cadherin/β-actin Relative Expression” value (VE-cadherin; [7]) was 1.534 and 1.457 and 1.274 and 1.216, the VE-cadherin expression (VE-cadherin; [8]) was “induced the expression of claudin-5 and VE-cadherin in a concentration-dependent manner” and the “VE-cadherin/β-actin Relative Expression, Mean” value (VE-cadherin; [9]) was 1.424. For the same molecule, the “VE-cadherin/Tubulin Relative Expression Mean” value (VE-cadherin; [10]) was 1.899, the “VE-cadherin/β-actin Relative Expression, Mean” value (VE-cadherin; [11]) was 1.775 and the “VE-cadherin/Tubulin Relative Expression Mean” value (VE-cadherin; [12]) was 1.478. For the same molecule, the “VE-cadherin/β-actin Relative Expression” value (VE-cadherin; [13]) was 1.437 and 1.554 and 1.424 and 1.283, the “VE-cadherin/Tubulin Relative Expression” value (VE-cadherin; [14]) was 1.415 and 1.823 and 2.246 and 2.110 and the “VE-cadherin/β-actin Relative Expression” value (VE-cadherin; [15]) was 1.887 and 1.656 and 1.568 and 1.989. The “VE-cadherin/Tubulin Relative Expression” value (VE-cadherin; [16]) was 1.343 and 1.350 and 1.787 and 1.430 and the “phosphorylation of ERK (p-ERK)” value (p-ERK/ERK) was “accompanied by the phosphorylation”.
